The text below walks through data of US20240117029A1 (Hoffmann-La Roche, published 2024).

Assay [1] addresses T1, human CCL2 (MCP1) - wild type (wt) (human, UniProt P13500 24-99). Description: cell-based or functional assay.
Assay [2] concerns the target T1, human CCL2 (MCP1) - wild type (wt). Description: SPR Biacore T200, 37 C, antibody captured, CCL2 as analyte, 1:1 model. On the technique in general: Surface plasmon resonance follows binding to a sensor surface in real time, without labels.
The target of assay [3] is T2, human CCL2 (MCP1) - P8A variant (human, UniProt P13500 24-99).
T2 construct: Entry is without signal peptide; P8A prevents dimer formation (pure monomer); made in-house; also called monomeric human CCL2; monomeric CCL2
The assay is described as above.

B1: CKLO02 IgG1 (bispecific antibody)
heavy 1: not shown
heavy 2: not shown
light 1: QVQLVQSGAEVKKPGSSVKVSCKASGLTISHTYMHWVRQAPGQGLEWMGRIDPDNHNTKFDPKFQGRVTITADTSTSTAYMELSSLRSEDTAVYYCARGVFGFFEHWGQGTTVTVSSASVAAPSVFIFPPSDEQLKSGTASVVCLLNNFYPREAKVQWKVDNALQSGNSQESVTEQDSKDSTYSLSSTLTLSKADYEKHKVYACEVTHQGLSSPVTKSFNRGEC
light 2: EIVLTQSPATLSLSPGERATLSCRASQHVSDAYLAWYQQKPGQAPRLLIYDASDRAEGVPARFSGSGSGTDFTLTISSLEPEDFAVYYCHQYIHLHSFTFGQGTKVEIKRTVAAPSVFIFPPSDRKLKSGTASVVCLLNNFYPREAKVQWKVDNALQSGNSQESVTEQDSKDSTYSLSSTLTLSKADYEKHKVYACEVTHQGLSSPVTKSFNRGEC
With B1, the “IC50, inhibition of THP-1 migration towards recombinant huCCL2” value (shortened to “IC50, inhibition”) in assay [1] worked out at 0.2 µg/mL.

B2: CKLO2-SG1095 (bispecific antibody)
heavy 1: DIQMTQSPSSLSASVGDRVTITCKAFEDIYNRRAWYQQKPGKAPKLLIHGATSLEHGVPSRFSGSGSGTDYTLTISSLQPEDFATYYCQQFWSAPYTFGGGTKVEIKSSASTKGPSVFPLAPSSKSTSGGTAALGCLVKDYFPEPVTVSWNSGALTSGVHTFPAVLQSSGLYSLSSVVTVPSSSLGTQTYICNVNHKPSNTKVDKKVEPKSCDKTHTCPPCPAPELWNGPSVFLFPPKPKDTLMISRTPEVTCVVVDVSDEDPEVKFNWYVDGVEVHNAKTKPREELYNSTYRVVSVLTVLHRDWLNGKEYKCKVSNTALPKPIEKTISKAKGQRREPQVYTLPPCRDELTKNQVSLWCLVKGFYPSDIAVEWESNGQPENNYKTTPPVLDSDGSFFLYSKLTVDKSRWQQGNVFSCSVMHEALHAHYTRKELSLSP
heavy 2: not shown
light 1: QVQLVQSGAEVKKPGSSVKVSCKASGLTISHTYMHWVRQAPGQGLEWMGRIDPDNHNTKFDPKFQGRVTITADTSTSTAYMELSSLRSEDTAVYYCARGVFGFFEHWGQGTTVTVSSASVAAPSVFIFPPSDEQLKSGTASVVCLLNNFYPREAKVQWKVDNALQSGNSQESVTEQDSKDSTYSLSSTLTLSKADYEKHKVYACEVTHQGLSSPVTKSFNRGEC
light 2: EIVLTQSPATLSLSPGERATLSCRASQHVSDAYLAWYQQKPGQAPRLLIYDASDRAEGVPARFSGSGSGTDFTLTISSLEPEDFAVYYCHQYIHLHSFTFGQGTKVEIKRTVAAPSVFIFPPSDRKLKSGTASVVCLLNNFYPREAKVQWKVDNALQSGNSQESVTEQDSKDSTYSLSSTLTLSKADYEKHKVYACEVTHQGLSSPVTKSFNRGEC
Turning to B2, the “IC50, inhibition” value in assay [1] was 0.2 µg/mL.

B3: CKLO2-GG01 (bispecific antibody)
heavy 1: DIQMTQSPSSLSASVGDRVTITCKAFEDIYNRRAWYQQKPGKAPKLLIHGATSLEHGVPSRFSGSGSGTDYTLTISSLQPEDFATYYCQQFWSAPYTFGGGTKVEIKSSASTKGPSVFPLAPSSKSTSGGTAALGCLVKDYFPEPVTVSWNSGALTSGVHTFPAVLQSSGLYSLSSVVTVPSSSLGTQTYICNVNHKPSNTKVDKKVEPKSCDKTHTCPPCPAPEYLGGDSVFLFPPKPKDVLMISRTPEVTCVVIDVSHEDPEVKFNWYVDGVEVHNAKTKPREEQYNSTYRVVSVLPVLHRDWLNGKEYKCKVSNKALPKPIEKTISKAKGQRREPQVYTLPPCRDELTKNQVSLWCLVKGFYPSDIAVEWESNGQPENNYKTTPPVLDSDGSFFLYSKLTVDKSRWQQGNVFSCSVMHEALHAHYTRKELSLSP
heavy 2: not shown
light 1: QVQLVQSGAEVKKPGSSVKVSCKASGLTISHTYMHWVRQAPGQGLEWMGRIDPDNHNTKFDPKFQGRVTITADTSTSTAYMELSSLRSEDTAVYYCARGVFGFFEHWGQGTTVTVSSASVAAPSVFIFPPSDEQLKSGTASVVCLLNNFYPREAKVQWKVDNALQSGNSQESVTEQDSKDSTYSLSSTLTLSKADYEKHKVYACEVTHQGLSSPVTKSFNRGEC
light 2: EIVLTQSPATLSLSPGERATLSCRASQHVSDAYLAWYQQKPGQAPRLLIYDASDRAEGVPARFSGSGSGTDFTLTISSLEPEDFAVYYCHQYIHLHSFTFGQGTKVEIKRTVAAPSVFIFPPSDRKLKSGTASVVCLLNNFYPREAKVQWKVDNALQSGNSQESVTEQDSKDSTYSLSSTLTLSKADYEKHKVYACEVTHQGLSSPVTKSFNRGEC
B3: the “IC50, inhibition” value in assay [1] was 0.2 µg/mL.

B4: CKLO2-GG03/GG04 (bispecific antibody)
heavy 1: DIQMTQSPSSLSASVGDRVTITCKAFEDIYNRRAWYQQKPGKAPKLLIHGATSLEHGVPSRFSGSGSGTDYTLTISSLQPEDFATYYCQQFWSAPYTFGGGTKVEIKSSASTKGPSVFPLAPSSKSTSGGTAALGCLVKDYFPEPVTVSWNSGALTSGVHTFPAVLQSSGLYSLSSVVTVPSSSLGTQTYICNVNHKPSNTKVDKKVEPKSCDKTHTCPPCPAPEYLGGDSVFLFPPKPKDVLMISRTPEVTCVVIDVSHEDPEVKFNWYVDGVEVHNAKTKPREEQYNSTYRVVSVLPVLHRDWLNGKEYKCKVSNKALPKPIEKTISKAKGQRREPQVYTLPPCREEMTKNQVSLWCLVKGFYPSDIAVEWESNGQPENNYKTTPPVLDSDGSFFLYSKLTVDKSRWQQGNVFSCSVMHEALHAHYTRKELSLSP
heavy 2: not shown
light 1: QVQLVQSGAEVKKPGSSVKVSCKASGLTISHTYMHWVRQAPGQGLEWMGRIDPDNHNTKFDPKFQGRVTITADTSTSTAYMELSSLRSEDTAVYYCARGVFGFFEHWGQGTTVTVSSASVAAPSVFIFPPSDEQLKSGTASVVCLLNNFYPREAKVQWKVDNALQSGNSQESVTEQDSKDSTYSLSSTLTLSKADYEKHKVYACEVTHQGLSSPVTKSFNRGEC
light 2: EIVLTQSPATLSLSPGERATLSCRASQHVSDAYLAWYQQKPGQAPRLLIYDASDRAEGVPARFSGSGSGTDFTLTISSLEPEDFAVYYCHQYIHLHSFTFGQGTKVEIKRTVAAPSVFIFPPSDRKLKSGTASVVCLLNNFYPREAKVQWKVDNALQSGNSQESVTEQDSKDSTYSLSSTLTLSKADYEKHKVYACEVTHQGLSSPVTKSFNRGEC
With B4, the “IC50, inhibition” value in assay [1] is 0.3 µg/mL.

B5: CKLO2-GG02 (bispecific antibody)
heavy 1: DIQMTQSPSSLSASVGDRVTITCKAFEDIYNRRAWYQQKPGKAPKLLIHGATSLEHGVPSRFSGSGSGTDYTLTISSLQPEDFATYYCQQFWSAPYTFGGGTKVEIKSSASTKGPSVFPLAPSSKSTSGGTAALGCLVKDYFPEPVTVSWNSGALTSGVHTFPAVLQSSGLYSLSSVVTVPSSSLGTQTYICNVNHKPSNTKVDKKVEPKSCDKTHTCPPCPAPEYLGGDSVFLFPPKPKDVLMISRTPEVTCVVIDVSHEDPEVKFNWYVDGVEVHNAKTKPREEQYNSTYRVVSVLPVLHRDWLNGKEYKCKVSNKALPKPIEKTISKAKGQRREPQVYTLPPCRDELTKNQVSLWCLVKGFYPSDIAVEWESNGQPENNYKTTPPVLDSDGSFFLYSKLTVDKSRWQQGNVFSCSVLHEALHAHTTRKELSLSP
heavy 2: not shown
light 1: QVQLVQSGAEVKKPGSSVKVSCKASGLTISHTYMHWVRQAPGQGLEWMGRIDPDNHNTKFDPKFQGRVTITADTSTSTAYMELSSLRSEDTAVYYCARGVFGFFEHWGQGTTVTVSSASVAAPSVFIFPPSDEQLKSGTASVVCLLNNFYPREAKVQWKVDNALQSGNSQESVTEQDSKDSTYSLSSTLTLSKADYEKHKVYACEVTHQGLSSPVTKSFNRGEC
light 2: EIVLTQSPATLSLSPGERATLSCRASQHVSDAYLAWYQQKPGQAPRLLIYDASDRAEGVPARFSGSGSGTDFTLTISSLEPEDFAVYYCHQYIHLHSFTFGQGTKVEIKRTVAAPSVFIFPPSDRKLKSGTASVVCLLNNFYPREAKVQWKVDNALQSGNSQESVTEQDSKDSTYSLSSTLTLSKADYEKHKVYACEVTHQGLSSPVTKSFNRGEC
Take B5: the “IC50, inhibition” value in assay [1] was 0.2 µg/mL.

B6: 1A4 (antibody, V domains shown)
VH: QSLEESGGDLVKPGASLTLTCTASELDFYWICWVRQAPGKGLEWIACIGAGSSGSTYYASWAKGRFTVSKTSSTTVTLQMTSLTAADTATYFCARTGTEFTYYSLWGPGTLVTVSS
VL: ALVMTQTPSSVSAAVGGTVTINCQASQSVYNNNMAWYQQKPGQPPKLLIYTASSLASGVPSHFRGSGSGTQFTLTISDLESDDAATYYCAGYKSYSNDEYGFGGGTEVVVK
notes: also called CCL2-0008
As for B6, the entries for the “T½” value in assay [2] and in assay [3] were 100 min and 174 min, respectively.

B7: 2F6 (antibody, V domains shown)
VH: QSLEESGGGLVQPEGSLTLTCTASGFSFNNNYYMCWVRQAPGKGLEWIGCISTDDSNTHYASWAQGRFTISKASSTALTLQVAGLTVADMATYFCARDAHFTSYGYGFDLWGPGTLVTVSS
VL: DIVMTQTPASVSAAVGGTVSINCRASEDIENLVAWYQQKPGQPPKLLIYQASKLASGVPSRFKGSGSGAEFTLTIGDLESADAATYYCQGDYGSGWIMYSFGGGTDLVVK
notes: Generated as IgG1 wild type and IgG1 PGLALA with kappa light chain; also called CCL2-0014
As for B7, the “T½” value in assay [2] was found to be 52 min; in assay [3], 47 min.

B8: murine 11K2 (antibody, V domains shown)
VH: EVQLQQSGAELVKAGASVKLSCPASGLNIKDTYMHWVKQRPEQGLEWIGRIDPANGNTKFDPKFQGKATITADTSSNTAYLQLSSLTSEDTAVYYCARGVFGFFDYWGQGTTLTVSS
VL: DIQMTQSSSSFSVSLGDRVTITCKATEDIYNRLAWYQQKPGSAPRLLISGATSLETGVPSRFSGSGSGKDYTLSITSLQTEDVATYYCQQFWSAPYTFGGGTKLEIK
notes: also called 11K2m; X-0048
Regarding B8, the “T½” value in assay [2] is 19 min; in assay [3], 518 min.

B9: 1A5 (antibody, V domains shown)
VH: QEQLVESGGDLVKPEGSLTLTCTASGFSFSTSYWMCWVRQAPGKGLELIACISSSIGVTYYASWAEGRFTISKTSSTTVTLQMTSLTVADTATYFCARTTDDNWNVGFNLWGPGTLVTVSS
VL: AYDMTQTPASVEVGVGGTVTIKCQASQSIGNRYLSWYQQKPGQPPKLLIYGTSTLASGVSSRFKGSGSGTQFTLTISGVESADSATYYCQQGATISYLDNAFGGGTEVVVK
notes: Generated as IgG1 wild type and IgG1 PGLALA with kappa light chain; also called CCL2-0009
Take B9: the “T½” value was 160 min in assay [2] and 137 min in assay [3].

B10: 1G9 (antibody, V domains shown)
VH: QSLEESGGDLVKPGASLTLTCKASGIDFSLYSYMCWVRQAPGKGLEWIACVDAGASGSTYYASWAKGRFTISKTSSTTVTLQMTSLTAADTATYFCARGILYYTWPYPAGAIDAFDSWGPGTLVTVSS
VL: AYDMTQTPASVSEPVGGTVTIKCQASESISNYLSWYQQKPGQPPKLLIYKASTLASGVPSRFKGSGSGTEYTVTISGVQSDDAATYYCQQSYSSSNVFNTFGGGTEVVVK
notes: Generated as IgG1 wild type and IgG1 PGLALA with kappa light chain; also called CCL2-0010
B10: the “T½” value worked out at 177 min in assay [2] and 218 min in assay [3].
